Data reported in the Immune Epitope Database (IEDB).

Assays:
HLA-A*01:01 [1] = experiment: IEDB peptide-MHC binding, purified MHC/competitive/fluorescence; ≥ and ≤ were set here for values at or beyond the usual limits of such assays; conditions: source organism: Rattus norvegicus
HLA-A*02:01 = experiment: as above; conditions: source organism: Rattus norvegicus
HLA-A*03:01 [2] = experiment: as above; conditions: source organism: Rattus norvegicus
HLA-A*11:01 [3] = experiment: as above; conditions: source organism: Rattus norvegicus
HLA-A*24:02 = experiment: as above; conditions: source organism: Rattus norvegicus
HLA-A*25:01 [4] = experiment: as above; conditions: source organism: Rattus norvegicus
HLA-A*29:02 = experiment: as above; conditions: source organism: Rattus norvegicus
HLA-A*31:01 = experiment: as above; conditions: source organism: Rattus norvegicus
HLA-A*68:02 = experiment: as above; conditions: source organism: Rattus norvegicus
HLA-B*07:02 [5] = experiment: as above; conditions: source organism: Rattus norvegicus
HLA-B*08:01 [6] = experiment: as above; conditions: source organism: Rattus norvegicus
HLA-B*14:02 [7] = experiment: as above; conditions: source organism: Rattus norvegicus
HLA-B*18:01 [8] = experiment: as above; conditions: source organism: Rattus norvegicus
HLA-B*35:01 = experiment: as above; conditions: source organism: Rattus norvegicus
HLA-B*37:01 = experiment: as above; conditions: source organism: Rattus norvegicus
HLA-B*40:02 = experiment: as above; conditions: source organism: Rattus norvegicus
HLA-B*44:03 = experiment: as above; conditions: source organism: Rattus norvegicus
HLA-B*51:01 [9] = experiment: as above; conditions: source organism: Rattus norvegicus
HLA-B*53:01 [10] = experiment: as above; conditions: source organism: Rattus norvegicus
HLA-B*58:01 [11] = experiment: as above; conditions: source organism: Rattus norvegicus
HLA-A*01:01 [12] = experiment: IEDB peptide-MHC binding, purified MHC/competitive/fluorescence; filed as Kd, often an IC50 or EC50 that approximates it; ≥ and ≤ were set here for values at or beyond the usual limits of such assays; conditions: source organism: Entamoeba dispar SAW760
HLA-A*11:01 [13] = experiment: as above; conditions: source organism: Entamoeba dispar SAW760
HLA-A*30:01 = experiment: as above; conditions: source organism: Entamoeba dispar SAW760
HLA-A*30:02 = experiment: as above; conditions: source organism: Entamoeba dispar SAW760
HLA-A*66:01 = experiment: as above; conditions: source organism: Entamoeba dispar SAW760
HLA-B*07:02 [14] = experiment: as above; conditions: source organism: Entamoeba dispar SAW760
HLA-B*08:01 [15] = experiment: as above; conditions: source organism: Entamoeba dispar SAW760
HLA-B*14:02 [16] = experiment: as above; conditions: source organism: Entamoeba dispar SAW760
HLA-B*27:05 = experiment: as above; conditions: source organism: Entamoeba dispar SAW760
HLA-B*44:02 = experiment: as above; conditions: source organism: Entamoeba dispar SAW760
HLA-B*53:01 [17] = experiment: as above; conditions: source organism: Entamoeba dispar SAW760
HLA-B*58:01 [18] = experiment: as above; conditions: source organism: Entamoeba dispar SAW760
HLA-A*02:03 = experiment: IEDB peptide-MHC binding, purified MHC/direct/fluorescence; filed as Kd, often an IC50 or EC50 that approximates it; ≥ and ≤ were set here for values at or beyond the usual limits of such assays; conditions: source organism: Campylobacter jejuni
HLA-A*02:11 = experiment: as above; conditions: source organism: Campylobacter jejuni
HLA-A*02:12 = experiment: as above; conditions: source organism: Campylobacter jejuni
HLA-A*02:19 = experiment: as above; conditions: source organism: Campylobacter jejuni
HLA-A*03:01 [19] = experiment: as above; conditions: source organism: Campylobacter jejuni
HLA-A*25:01 [20] = experiment: as above; conditions: source organism: Campylobacter jejuni
HLA-A*26:01 = experiment: as above; conditions: source organism: Campylobacter jejuni
HLA-A*80:01 = experiment: as above; conditions: source organism: Campylobacter jejuni
HLA-B*15:01 = experiment: as above; conditions: source organism: Campylobacter jejuni
HLA-B*18:01 [21] = experiment: as above; conditions: source organism: Campylobacter jejuni
HLA-B*27:03 = experiment: as above; conditions: source organism: Campylobacter jejuni
HLA-B*39:01 = experiment: as above; conditions: source organism: Campylobacter jejuni
HLA-B*46:01 = experiment: as above; conditions: source organism: Campylobacter jejuni
HLA-B*51:01 [22] = experiment: as above; conditions: source organism: Campylobacter jejuni
HLA-B*57:01 = experiment: as above; conditions: source organism: Campylobacter jejuni
HLA-C*04:01 = experiment: as above; conditions: source organism: Campylobacter jejuni

Question: What does the source list for SLLERGQQLGV?
Answer: IC50 (HLA-A*01:01 [1]): ≥ 20 µM; IC50 (HLA-A*02:01): 0.0187 µM; IC50 (HLA-A*03:01 [2]): ≥ 20 µM; IC50 (HLA-A*11:01 [3]): ≥ 20 µM; IC50 (HLA-A*24:02): 6.08 µM; IC50 (HLA-A*25:01 [4]): ≥ 20 µM; IC50 (HLA-A*29:02): 17.8 µM; IC50 (HLA-A*31:01): ≥ 20 µM; IC50 (HLA-A*68:02): 0.914 µM; IC50 (HLA-B*07:02 [5]): ≥ 20 µM; IC50 (HLA-B*08:01 [6]): ≥ 20 µM; IC50 (HLA-B*14:02 [7]): ≥ 20 µM; IC50 (HLA-B*18:01 [8]): ≥ 20 µM; IC50 (HLA-B*35:01): ≥ 20 µM; IC50 (HLA-B*37:01): ≥ 20 µM; IC50 (HLA-B*40:02): ≥ 20 µM; IC50 (HLA-B*44:03): ≥ 20 µM; IC50 (HLA-B*51:01 [9]): ≥ 20 µM; IC50 (HLA-B*53:01 [10]): ≥ 20 µM; IC50 (HLA-B*58:01 [11]): ≥ 20 µM

Question: How did the Kd (HLA-A*01:01 [12]) turn out when SQYDPKELL was run?
Answer: ≥ 5 µM

Question: What about the Kd (HLA-A*11:01 [13]) of the same sequence?
Answer: ≥ 5 µM

Question: And the Kd (HLA-A*30:01)?
Answer: ≥ 5 µM

Question: And the Kd (HLA-A*30:02)?
Answer: ≥ 5 µM

Question: What about the Kd (HLA-A*66:01) of the same sequence?
Answer: ≥ 5 µM

Question: What about the Kd (HLA-B*07:02 [14]) of the same sequence?
Answer: ≥ 5 µM

Question: And the Kd (HLA-B*08:01 [15])?
Answer: ≥ 5 µM

Question: What about the Kd (HLA-B*14:02 [16]) of the same sequence?
Answer: ≥ 5 µM

Question: And the Kd (HLA-B*27:05)?
Answer: ≥ 5 µM

Question: And the Kd (HLA-B*44:02)?
Answer: ≥ 5 µM

Question: What about the Kd (HLA-B*53:01 [17]) of the same sequence?
Answer: ≥ 5 µM

Question: And the Kd (HLA-B*58:01 [18])?
Answer: ≥ 5 µM

Question: YWDQVTFFY was tested. Which Kd (HLA-A*02:03) did it give?
Answer: ≥ 20 µM

Question: And the Kd (HLA-A*02:11)?
Answer: ≥ 20 µM

Question: What about the Kd (HLA-A*02:12) of the same sequence?
Answer: ≥ 20 µM

Question: And the Kd (HLA-A*02:19)?
Answer: ≥ 20 µM

Question: And the Kd (HLA-A*03:01 [19])?
Answer: ≥ 20 µM

Question: What about the Kd (HLA-A*25:01 [20]) of the same sequence?
Answer: ≥ 20 µM

Question: And the Kd (HLA-A*26:01)?
Answer: ≥ 20 µM

Question: What about the Kd (HLA-A*80:01) of the same sequence?
Answer: 0.056 µM

Question: And the Kd (HLA-B*15:01)?
Answer: ≥ 20 µM

Question: What about the Kd (HLA-B*18:01 [21]) of the same sequence?
Answer: ≥ 20 µM

Question: And the Kd (HLA-B*27:03)?
Answer: ≥ 20 µM

Question: And the Kd (HLA-B*39:01)?
Answer: ≥ 20 µM

Question: What about the Kd (HLA-B*46:01) of the same sequence?
Answer: ≥ 20 µM

Question: What about the Kd (HLA-B*51:01 [22]) of the same sequence?
Answer: ≥ 20 µM

Question: What about the Kd (HLA-B*57:01) of the same sequence?
Answer: ≥ 20 µM

Question: And the Kd (HLA-C*04:01)?
Answer: ≥ 20 µM
